The text below walks through data of patent publication US20220047712A1 (FORTIS THERAPEUTICS, published 2022).

The test concerns the target T1, CD46 (human, UniProt P15529 35-392).
T1 construct: whole, on cells; also called CD46 complement regulatory protein; cluster of differentiation 46
T1 sequence (looked up): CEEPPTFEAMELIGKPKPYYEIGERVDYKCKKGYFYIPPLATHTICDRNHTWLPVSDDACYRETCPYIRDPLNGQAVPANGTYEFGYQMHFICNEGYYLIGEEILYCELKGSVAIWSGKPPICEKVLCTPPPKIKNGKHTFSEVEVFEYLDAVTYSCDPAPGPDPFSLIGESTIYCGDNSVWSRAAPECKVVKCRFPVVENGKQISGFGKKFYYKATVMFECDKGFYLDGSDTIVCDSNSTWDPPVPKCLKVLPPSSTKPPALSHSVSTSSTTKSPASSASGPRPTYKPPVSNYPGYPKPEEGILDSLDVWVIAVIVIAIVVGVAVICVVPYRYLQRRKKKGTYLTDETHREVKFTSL
As to the kind of experiment: flow cytometry on cells, YS5FL at 10 µg/mL, AlexaFluor-488 anti-human IgG1 Fc secondary. On the procedure: Cell surface CD46 was detected by flow cytometry. Cells were harvested, centrifuged and resuspended in FACS buffer (PBS+2% FBS) at a concentration of 1×10⁶ cells/mL. 100 μL of cell suspension was dispensed into each well of a 96-well plate, 100 μL of YS5FL at 10 μg/mL was added to the wells and incubated for 1 hour at 4° C. The cells were washed three times with FACS buffer. After the third wash, the cells were resuspended in 100 μL 1:500 diluted AlexaFluor-488 mouse anti-Human IgG1 Fc secondary antibody and incubated for 1 hour at 4° C. in the dark. The cells were washed three times with 200 μL PBS by centrifuging at 2000 RPM for 5 minutes. After the last wash, the cells were resuspended in 300 μL cold PBS and analyzed on a FACSVerse™ (BD Biosciences) flow cytometer. YS5FL bound specifically to the surface of LnCap-C4-2B, LnCap-C4, DU145, PC3-luc, and Hs27 prostate cancer cells, but not to non-tumor BPH1 cells. FIG. 1. Likewise, YS5FL bound specifically to the surface of RPMI8226, MM.1S, MM.1R, and INA6 multiple myeloma cells. FIG. 2.

B1: YS5FL (antibody, human IgG1, lambda, V domains shown)
VH: QVQLVQSGGGVVQPGRSLRLACAASGLTVNNYAMHWVRQAPGKGLEWVAVISYDGNNKYYADSVKGRFTISRDNSKNTLYLQMNSLRAEDTAVYYCAKGGGYFDLWGRGTLVTVSS
VL: QSVLTQPPSVSGAPGQRVTISCTGSSSNIGAGYDVHWYQQLPGTAPKLLIYGNNNRPSGVPDRFSGSKSGTSASLAITGLQAEDEADYYCSSYTSGTWLFGGGTKLTVLG
notes: FOR46 is this antibody conjugated to MMAE via mc-vc-PAB; also called anti-CD46 YS5FL antibody; YS5FL mAb
With B1, the binding result is given as “binds”.
